Test results: article PMC3834827, “Crystal structure of the DdrB/ssDNA complex from Deinococcus radiodurans reveals a DNA binding surface involving higher-order oligomeric states” (Nucleic Acids Research, 2013)
Blank lines part the entries; values can stand above or below the molecule they belong to.

Key:
[1] = target: DdrB R83A mutant with N-terminal 6His tag (Deinococcus radiodurans) (UniProt Q9RY80); test: AUC; sedimentation velocity, 20°C, 42 krpm, 100 mM KCl, 20 mM Tris pH 8.0, loading concentrations 10 µM to 0.64 mM, absorbance and interference optics, no DNA; pentamer and assemblies of pentamers
[2] = target: DdrB E51A mutant with N-terminal 6His tag (Deinococcus radiodurans) (UniProt Q9RY80); test: as above
[3] = target: T1, DdrB1-144 (Deinococcus radiodurans, UniProt Q9RY80 1-144); test: EMSA; pentamer, decamer and penta-decamer complexes; 10 uM DNA; FP: 20 mM Tris pH 8.0, 100 mM KCl, 200 nM DNA; EMSA: same plus 15% glycerol, 10 uM DNA; temperature not stated; conditions: protein: recombinant; tags: N-terminal 6His (pET151, not cleaved); chain copies: 5
T1 sequence: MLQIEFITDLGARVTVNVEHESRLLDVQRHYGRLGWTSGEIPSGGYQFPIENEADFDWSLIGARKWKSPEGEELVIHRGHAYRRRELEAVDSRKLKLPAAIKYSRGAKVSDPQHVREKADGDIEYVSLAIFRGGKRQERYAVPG

[4] = target: T2, DdrB E51A (Deinococcus radiodurans, UniProt Q9RY80 1-144, E51A); test: EMSA; single pentamer-DNA complex only, no higher-order shifts; 10 uM DNA; FP: 20 mM Tris pH 8.0, 100 mM KCl, 200 nM DNA; EMSA: same plus 15% glycerol, 10 uM DNA; temperature not stated; conditions: protein: recombinant; tags: N-terminal 6His; chain copies: 5
T2 sequence: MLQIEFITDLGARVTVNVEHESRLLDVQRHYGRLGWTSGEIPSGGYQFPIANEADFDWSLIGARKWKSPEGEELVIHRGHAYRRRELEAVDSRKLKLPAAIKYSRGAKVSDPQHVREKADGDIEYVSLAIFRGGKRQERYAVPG

[5] = target: T3, DdrB1-144, tag removed (Deinococcus radiodurans, UniProt Q9RY80 1-144); test: X-ray crystallography 2.30 A; MES pH 5.6, KCl, 10 mM MgCl2, PEG 8000; FP: 20 mM Tris pH 8.0, 100 mM KCl, 200 nM DNA; EMSA: same plus 15% glycerol, 10 uM DNA; temperature not stated; conditions: protein: recombinant; tags: 6His removed by TEV; chain copies: 5
T3 sequence: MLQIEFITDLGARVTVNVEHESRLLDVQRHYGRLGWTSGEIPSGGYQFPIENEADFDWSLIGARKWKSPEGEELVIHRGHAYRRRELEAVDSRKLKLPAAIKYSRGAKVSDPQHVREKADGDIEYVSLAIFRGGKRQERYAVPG

[6] = target: T4, DdrB W66A (Deinococcus radiodurans, UniProt Q9RY80 1-144, W66A); test: fluorescence anisotropy; per pentamer; saturating anisotropy fixed to wild-type value; FP: 20 mM Tris pH 8.0, 100 mM KCl, 200 nM DNA; EMSA: same plus 15% glycerol, 10 uM DNA; temperature not stated; conditions: protein: recombinant; tags: N-terminal 6His; chain copies: 5; label: 5' 6-FAM
T4 sequence: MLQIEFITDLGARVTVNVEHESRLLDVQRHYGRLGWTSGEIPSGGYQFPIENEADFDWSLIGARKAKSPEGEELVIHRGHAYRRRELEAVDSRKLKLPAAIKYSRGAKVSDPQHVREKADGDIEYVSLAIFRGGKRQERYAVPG

[7] = target: T2, DdrB E51A; test: fluorescence anisotropy; 3 uM pentamer; full DNA binding activity retained; FP: 20 mM Tris pH 8.0, 100 mM KCl, 200 nM DNA; EMSA: same plus 15% glycerol, 10 uM DNA; temperature not stated; conditions: protein: recombinant; tags: N-terminal 6His; chain copies: 5; label: 5' 6-FAM
[8] = target: T1, DdrB1-144; test: fluorescence anisotropy; per pentamer, A+B=AB model; FP: 20 mM Tris pH 8.0, 100 mM KCl, 200 nM DNA; EMSA: same plus 15% glycerol, 10 uM DNA; temperature not stated; conditions: protein: recombinant; tags: N-terminal 6His (pET151, not cleaved); chain copies: 5; label: 5' 6-FAM
[9] = target: the molecule itself; test: crystal structure; 740 µM DdrBDr with 160 µM 50b poly dT, hanging drop at 20°C; 2.30 Å; pentamer in the asymmetric unit, pentamer-pentamer interface by crystallographic symmetry

percent of the total signal from the pentamer [1]: 92%
stoichiometry N [1]: 5
Molecule: DdrB R83A mutant with N-terminal 6His tag (from UniProt Q9RY80 1-144) (domain or fragment)

percent of the total signal from the pentamer [2]: 88%
stoichiometry N [2]: 5
Molecule: DdrB E51A mutant with N-terminal 6His tag (from UniProt Q9RY80 1-144) (domain or fragment)

B1: 50b poly dT (ssDNA)
DNA: TTTTTTTTTTTTTTTTTTTTTTTTTTTTTTTTTTTTTTTTTTTTTTTTTT
binding result [3]: binds
binding result [4]: binds
binding result [5]: binds

B2: 20b poly dT (ssDNA)
DNA: TTTTTTTTTTTTTTTTTTTT
Kd [6]: 51 µM
binding result [7]: binds
Kd [8]: 3.6 µM

B3: DdrB1-144 from Deinococcus radiodurans, 6His tag removed (protein used in crystallography) (domain or fragment, UniProt Q9RY80 1-144, looked up)
chain: MLQIEFITDLGARVTVNVEHESRLLDVQRHYGRLGWTSGEIPSGGYQFPIENEADFDWSLIGARKWKSPEGEELVIHRGHAYRRRELEAVDSRKLKLPAAIKYSRGAKVSDPQHVREKADGDIEYVSLAIFRGGKRQERYAVPG
notes: DdrB, Deinococcus radiodurans, residues 1-144 (stop codon introduced following residue 144), construct MJ4748 in pET151/D-Topo; Pentamer; Tag cleaved with TEV protease; also called DdrBDr; not shown: His6, N-terminal, cleaved
stoichiometry N [9]: 5
